{"source": "patent US20090269356", "about": "“Complement Binding Aptamers and Anti-C5 Agents Useful in the Treatment of Ocular Disorders” (published 2009)", "key": {"[1]": {"target": "complement C5 (full length) (Homo sapiens, UniProt P01031)", "sequence (P01031 whole entry)": "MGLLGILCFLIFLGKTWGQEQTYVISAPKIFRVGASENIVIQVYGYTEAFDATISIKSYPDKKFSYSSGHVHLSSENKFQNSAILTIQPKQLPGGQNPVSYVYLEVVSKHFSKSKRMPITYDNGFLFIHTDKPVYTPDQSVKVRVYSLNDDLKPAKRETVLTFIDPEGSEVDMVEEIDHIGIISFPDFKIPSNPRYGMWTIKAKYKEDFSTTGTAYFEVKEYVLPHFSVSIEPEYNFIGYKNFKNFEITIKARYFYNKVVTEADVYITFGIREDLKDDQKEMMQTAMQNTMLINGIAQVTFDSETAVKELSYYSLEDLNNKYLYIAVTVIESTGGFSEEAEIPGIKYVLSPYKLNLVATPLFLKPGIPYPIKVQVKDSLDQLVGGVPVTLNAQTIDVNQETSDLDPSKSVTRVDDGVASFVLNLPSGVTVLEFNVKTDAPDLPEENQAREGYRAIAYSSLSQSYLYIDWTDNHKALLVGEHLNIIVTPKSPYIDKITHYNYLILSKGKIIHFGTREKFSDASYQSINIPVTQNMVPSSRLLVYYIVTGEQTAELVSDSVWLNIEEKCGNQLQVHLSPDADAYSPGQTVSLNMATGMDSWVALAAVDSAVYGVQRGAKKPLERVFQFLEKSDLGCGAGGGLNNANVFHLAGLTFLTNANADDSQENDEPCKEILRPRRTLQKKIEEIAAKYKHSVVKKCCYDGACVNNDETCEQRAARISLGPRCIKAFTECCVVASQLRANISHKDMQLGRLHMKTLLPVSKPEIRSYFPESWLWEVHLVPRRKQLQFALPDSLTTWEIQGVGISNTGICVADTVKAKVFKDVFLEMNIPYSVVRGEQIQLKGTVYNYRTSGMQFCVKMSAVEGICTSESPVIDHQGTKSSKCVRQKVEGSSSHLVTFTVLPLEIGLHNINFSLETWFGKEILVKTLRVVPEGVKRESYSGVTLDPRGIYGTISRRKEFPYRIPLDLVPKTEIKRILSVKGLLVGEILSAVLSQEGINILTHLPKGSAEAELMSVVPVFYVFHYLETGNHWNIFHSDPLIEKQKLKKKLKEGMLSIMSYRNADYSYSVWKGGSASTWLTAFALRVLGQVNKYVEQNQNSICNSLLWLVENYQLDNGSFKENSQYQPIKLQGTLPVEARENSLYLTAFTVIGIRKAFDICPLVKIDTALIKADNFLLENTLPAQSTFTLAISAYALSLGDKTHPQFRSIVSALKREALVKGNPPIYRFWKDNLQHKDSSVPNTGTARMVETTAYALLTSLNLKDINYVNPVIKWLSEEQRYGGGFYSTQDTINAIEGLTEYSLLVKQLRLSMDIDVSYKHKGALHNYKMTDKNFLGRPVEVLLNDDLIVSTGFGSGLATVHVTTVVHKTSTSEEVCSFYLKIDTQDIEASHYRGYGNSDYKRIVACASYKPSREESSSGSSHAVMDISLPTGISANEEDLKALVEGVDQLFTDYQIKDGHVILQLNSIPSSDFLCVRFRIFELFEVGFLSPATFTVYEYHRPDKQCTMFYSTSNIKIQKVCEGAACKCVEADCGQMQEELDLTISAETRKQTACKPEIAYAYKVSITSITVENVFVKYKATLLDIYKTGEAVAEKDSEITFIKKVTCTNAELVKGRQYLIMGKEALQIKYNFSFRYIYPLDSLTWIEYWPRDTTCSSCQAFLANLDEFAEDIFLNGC", "assay": "filter; dot blot; 20% plateau", "details": "tags: Quidel / Complement Technologies A120.14 / Advanced Research Technologies", "protocol": "The selection progress was monitored using a sandwich filter binding (dot blot) assay. The 5′-³²P-labeled pool RNA (trace concentration) was incubated with C5, 1×DPBS plus 0.1 mg/mL tRNA and 0.1 mg/mL salmon sperm DNA, for 30 minutes at room temperature, and then applied to a nitrocellulose and nylon filter sandwich in a dot blot apparatus (Schleicher and Schuell). The percentage of pool RNA bound to the nitrocellulose was calculated and monitored approximately every 3 rounds with a single point screen (+/−300 nM C5). Pool Kd measurements were measured using a titration of protein and the dot blot apparatus as described above.\nSequence Information: 45 clones from each pool were sequenced. R10 full length pool was dominated by one single clone ARC913 (SEQ ID NO: 75) which made up 24% of the pool, 2 sets of duplicates and single sequences made up the remainder. The R10 trypsinized pool contained 8 copies of the same sequence ARC913 (SEQ ID NO: 75), but the pool was dominated by another sequence (AMX221.A7; 46%)."}, "[2]": {"target": "complement C5 in human serum/blood (Homo sapiens, UniProt P01031)", "sequence (P01031 whole entry)": "as above", "assay": "inhibition; hemolysis, 0.2% human serum, 25 C", "details": "protein: extract", "protocol": "Hemolysis Assay: The effect of ARC913 (SEQ ID NO: 75) on the classical pathway of the complement system was analyzed using a hemolysis assay previously described, compared to both ARC186 (SEQ ID NO: 4) (Anti-C5 aptamer, positive control) and unselected dRmY pool (negative control). In the assay of hemolytic inhibition, a solution of 0.2% whole human serum was mixed with antibody-coated sheep erythrocytes (Diamedix EZ Complement CH50 Test, Diamedix Corporation, Miami, Fla.) in the presence of titrated ARC913 (SEQ ID NO: 75). The assay was run in veronal-buffered saline containing calcium, magnesium and 1% gelatin (GVB⁺⁺ complement buffer) and incubated for 1 hr at 25° C. After incubation the samples were centrifuged. The optical density at 415 nm (OD₄₁₅) of the supernatant was read. The inhibition of hemolysis activity is expressed as % hemolysis activity compared to control. The IC₅₀ of the aptamer was calculated to be about 30 nM."}}}
{"binder": "ARC913 (mixed, dRmY: A,G deoxy; C,U 2'-OMe) RNA: GGGAGAGGAGAGAACGUUCUACCUUGGUUUGGCACAGGCAUACAUACGCAGGGGUCGAUCGAUCGAUCAUCGAUG", "values": [{"measurement": "Kd", "setting": "[1]", "value": "~140", "unit": "nM"}, {"measurement": "IC50", "setting": "[2]", "value": "~30", "unit": "nM"}]}
